Values quoted from earlier work in US20030232389A1, “Urokinase peptide structure mimetics” (priority 2000, published 2003).
pIC50: −log10 of the molar value. Positions of bridges follow the written chain, without caps; N, C: chain ends. Non-standard residues stand in square brackets, D forms with d. No end group written: not given here.

Target: uPAR (uPA receptor) (Homo sapiens, UniProt Q03405)
Details: cyclic disulfide peptide mimicking loop B of the uPA growth factor domain; value from German patent application 199 33 701.2

Chain of uPAR (uPA receptor) (Q03405 23-305): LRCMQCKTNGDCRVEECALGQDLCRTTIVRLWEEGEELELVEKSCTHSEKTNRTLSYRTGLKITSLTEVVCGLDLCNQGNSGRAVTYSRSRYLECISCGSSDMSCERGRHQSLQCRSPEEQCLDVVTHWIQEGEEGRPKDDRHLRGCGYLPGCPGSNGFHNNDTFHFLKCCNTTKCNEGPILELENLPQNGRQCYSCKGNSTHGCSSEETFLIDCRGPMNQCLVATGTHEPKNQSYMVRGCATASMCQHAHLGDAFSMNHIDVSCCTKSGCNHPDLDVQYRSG

- pIC50: 7.11
Substance: cyclo[1,9] D-Cys-Asn-Lys-Tyr-Phe-Ser-Asn-Ile-Cys-Trp ([dC]NKYFSNICW; disulfide 1-9) [cyclo[21,29][D-Cys21Cys29]-uPA21-30]
